Patent US20230126400A1 (Alector, published 2023)

How the values were obtained:
human MS4A4A = human MS4A4A (human, UniProt Q96JQ5 1-239); assay: FACS, HEK293, supernatant
Protocol: (§1) Positive clones identified above were expanded and then rescreened for specificity against HEK293 cells overexpressing human MS4A4A or cyno MS4A4A and parental HEK293 cells. These experiments were performed using supernatants from hybridoma clones which had undergone further expansion after initial selection. Briefly, previously prepared, cryopreserved transiently-transfected cells were labeled with LIVE/DEAD Fixable Aqua Dead Cell Stain Kit (ThermoFisher Scientific L34957) on ice for 30 minutes. After a wash with PBS, 2×10⁵ cells were aliquoted per well in 96-well U-bottom plates and incubated with 50 μl of culture supernatant on ice for 30 minutes. […] Following this secondary incubation, the cells were again washed twice with ice-cold FACS buffer and resuspended in a final volume of 200 μl of FACS buffer. Analysis was performed on a FACS Canto system (BD Biosciences), with sort gates drawn to exclude dead (Aqua-positive) cells. Positive clones (fold change of 1.8 or greater) were carried forward for further testing.

cynomolgus (cyno) MS4A4A = target: T1, cynomolgus (cyno) MS4A4A (cynomolgus); assay: FACS, HEK293, supernatant
T1 construct: also called cy4A; Cyno 4A
Protocol: as §1

[1] = target: T2, human MS4A6A ECL1 peptide (amino acid residues 68-85) (human); assay: array SPR
T2 peptide: SASFSPNFTQVTSTLLNS
Protocol: (§2) Binding kinetic characterization of the anti-MS4A4A antibodies to MS4A4A ECL1 and ECL2 and to MS4A6A ECL1 and ECL2 peptides was performed by Carterra (South San Francisco, Calif.) using a proprietary array Surface Plasmon Resonance (SPR) instrument (MX-96) as follows. Antibodies were captured onto a CMD500D chip (Xantec # SPMX CMD500D) using the Continous Flow Microspotter (CFM). First, the chip was activated with 100 mM MES pH 5.5, 100 μL EDC (133 mM final), 100 μL of S-NHS (33.3 mM final), for 7 minutes. […] Anti-MS4A4A hydridoma supernatant or purified anti-MS4A4A antibodies were diluted in HBS-EP+ buffer (Teknova Cat # H8022) and then printed as duplicates with a 20 minute and a 5-minute print from the same sample solution.
(§3) These were then injected on the chip for five minutes, followed by a seven-minute dissociation period at 8 uL per second in a non-regenerative kinetic series. Duplicate measurements for each anti-MS4A4A antibody were taken to ensure reproducibility. Association rates (Kon) and dissociation rates (Koff) were calculated using a single one-to-one Langmuir binding model. The equilibrium dissociation constant (KD) was calculated as the ration of Koff/Kon.

[2] = target: T3, human MS4A6A ECL2 peptide (amino acid residues 138-185) (human); assay: array SPR
T3 peptide: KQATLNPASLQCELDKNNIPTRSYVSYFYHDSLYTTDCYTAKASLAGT
Protocol: as §2, §3

[3] = target: T4, human MS4A4A ECL1 peptide (amino acid residues 86-98) (human); assay: ELISA, hybridoma supernatant
T4 construct: synthetic peptide
T4 peptide: CMASNTYGSNPIS
Protocol: (§4) Briefly, 96-well polystyrene plates were coated with 1-10 μg/ml of synthetic free or BSA-conjugated peptides in coating buffer (0.05M carbonate buffer, pH9.6, Millipore Sigma C3041) overnight at 4° C. Coated plates were then blocked with ELISA diluent (PBS+0.5% BSA+0.05% Tween20) for 1-hour, washed 3×300 μL in PBST (PBS+0.05% Tween20, Thermo Cat#28352), and then the antibodies were added to the plate ([…]). After 30 mins incubation (room temperature, with shaking), the plates were washed 3×300 μL in PBST. […] After a final set of washes (3×300 μL in PBST), 50 μL of TMB substrate (BioFx TMBW-1000-01) was added and the reaction was then quenched after 5-10 mins with 50 μL of stop solution (BioFx BSTP-1000-01). The quenched reaction wells were detected for absorbance at 650 nm with a BioTek Synergy Microplate Reader using GENS 2.04 software.

[4] = target: T5, BSA-conjugated human MS4A4A ECL2 peptide (amino acid residues 159-179) (human, conjugated to BSA (site not stated)); assay: ELISA, supernatant
T5 construct: also called MS4A4A-ECL2 BSA conjugated peptide; BSA-MS4A4A-ELC2 peptide
T5 peptide: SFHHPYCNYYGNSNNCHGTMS
Protocol: as §4

Human 4A:parental cell ratio (human MS4A4A)	Cyno 4A:parental cell ratio (cynomolgus (cyno) MS4A4A)	binding result [1]	binding result [2]	binding result [3]	binding result [4]	Binder
6.55 ratio	2.33 ratio	no binding (tested: 2000 nM)	no binding (tested: 2000 nM)	no binding	–	anti-MS4A4A antibody 4A-10 (antibody, V domains shown, murine hybridoma antibody) VH: EVKLEESGGGLVQPGGSMKLSCAASGFTFSDAWMDWVRQSPEKGLEWVAEIRSKANDHATYYAESVKGRFTISRDDSKSSVYLQMNSLRAEDTGIYYCSVDYYGFFWGQGTLVTVSA VL: not shown
43.8 ratio	9.94 ratio	no binding (tested: 2000 nM)	no binding (tested: 2000 nM)	no binding	–	anti-MS4A4A antibody 4A-13 (antibody, V domains shown, murine hybridoma antibody; same VH and VL entries as 4A-10) VH: EVKLEESGGGLVQPGGSMKLSCAASGFTFSDAWMDWVRQSPEKGLEWVAEIRSKANDHATYYAESVKGRFTISRDDSKSSVYLQMNSLRAEDTGIYYCSVDYYGFFWGQGTLVTVSA VL: not shown
5.93 ratio	2.65 ratio	no binding (tested: 2000 nM)	no binding (tested: 2000 nM)	no binding	binds	anti-MS4A4A antibody 4A-16 (antibody, V domains shown, murine hybridoma antibody) VH: EVKLEESGGGLVQPGGSMKLSCAASGFTFSDAWMDWVRQSPEKGLEWVAEIRSKANDHATYYAESVKGRFTISRDDSKSSVYLQMNSLRAEDTGIYYCSVDYYGFFWGQGTMVTVSA VL: not shown
–	–	no binding (tested: 2000 nM)	no binding (tested: 2000 nM)	no binding	binds	anti-MS4A4A antibody 4A-20 (antibody, V domains shown, murine hybridoma antibody) VH: EVQLQQSGPELVKPGASVKIPCKASGYTFTDYNMDWVKQSHGKSLDWIGDINPNNGYTIYNQKFKGKATLTVDKSSSTAYMELRRLTSEDTAVYYCARSTGPYFDYWGQGTTLTVSS VL: DIQMTQSPASLSASVGETVTITCRASENIYSYLAWYQQKQGKSPQFLVYNGKTLAEGVPSRFSGCGSGTQFSLKINSLQPEDFGSYYCQHHYGIPRTFGGGTKLEIK
4.78 ratio	2 ratio	no binding (tested: 2000 nM)	no binding (tested: 2000 nM)	no binding	binds	anti-MS4A4A antibody 4A-4 (antibody, V domains shown, murine hybridoma antibody) VH: EIQLQQTGPDLVKPGTSVKISCKASGYSFTDYVLVWVKQSHGKSLEWIGNINPYYGNSDYNLKFEGKARLTVDRSSSTAYMQLNSLTSEDSAVYYCARYGLYAMDFWGQGTSVTVSS VL: DVLMTQTPLSLPVSLGDQASISCRSSQTIVHSNGNSYLEWYLQKPGQSPKLLIYKVSNRFSGVPDRFSGSGSGTVFTLKISRVEAEDLGVYFCFQSSHVPLTFGVGTKLELK
7.97 ratio	3.98 ratio	no binding (tested: 2000 nM)	no binding (tested: 2000 nM)	no binding	binds	anti-MS4A4A antibody 4A-7 (antibody, V domains shown, murine hybridoma antibody) VH: EIQLQQTGPELVKPGASVKISCKASGYSFTDYVMIWVKQSHGKSLEWIGNINPYYGSTSYNLKFKGKATLTVDKSSSTAYMQLKSLTSEDSAVYYCARYGYDALDNWGQGTSVTVSS VL: DVLLTQTPLSLPVSLGDQASISCRSSQSIVHSNGNTYLDWSLQKPGQSPKLLIYRVSNRFSGVPDRFSGSGSGTDFTLKISRVEAEDLGVYYCFQGSHVPLTFGAGTKLELK
7.31 ratio	2.58 ratio	no binding (tested: 2000 nM)	no binding (tested: 2000 nM)	no binding	binds	anti-MS4A4A antibody 4A-3 (antibody, V domains shown, murine hybridoma antibody) VH: QIQLVQSGPELKTPGETVKISCKSSGYTFTKYGMNWVKQAPGKGLKWMAWINTYTAEPTYGDDFKGRFALSLETSANTAYLQINNLKNEDTATYFCARSAELVRHYYALDYWGQGTSVTVSS VL: DVLMTQTPLSLPVSLGDQASISCRSSQSLVHSNGNIYLEWFLQKPGQSLKILIYKVSNRFSGVPDRFSGSGSGTDFTLKISRVEADDLGVYYCSQGSHVPPTFGAGTKLELR
